Here are results for one molecule from US20080050387A1, “Non-Androgen Dependent Roles for Androgen Receptor and Non-Androgen Related Inhibitors of Androgen Receptor” (priority 2003, published 2008).

The experiment has as its target T1, VP16-AR containing the residues 37 to 919 (human), P10275.
T1 chain: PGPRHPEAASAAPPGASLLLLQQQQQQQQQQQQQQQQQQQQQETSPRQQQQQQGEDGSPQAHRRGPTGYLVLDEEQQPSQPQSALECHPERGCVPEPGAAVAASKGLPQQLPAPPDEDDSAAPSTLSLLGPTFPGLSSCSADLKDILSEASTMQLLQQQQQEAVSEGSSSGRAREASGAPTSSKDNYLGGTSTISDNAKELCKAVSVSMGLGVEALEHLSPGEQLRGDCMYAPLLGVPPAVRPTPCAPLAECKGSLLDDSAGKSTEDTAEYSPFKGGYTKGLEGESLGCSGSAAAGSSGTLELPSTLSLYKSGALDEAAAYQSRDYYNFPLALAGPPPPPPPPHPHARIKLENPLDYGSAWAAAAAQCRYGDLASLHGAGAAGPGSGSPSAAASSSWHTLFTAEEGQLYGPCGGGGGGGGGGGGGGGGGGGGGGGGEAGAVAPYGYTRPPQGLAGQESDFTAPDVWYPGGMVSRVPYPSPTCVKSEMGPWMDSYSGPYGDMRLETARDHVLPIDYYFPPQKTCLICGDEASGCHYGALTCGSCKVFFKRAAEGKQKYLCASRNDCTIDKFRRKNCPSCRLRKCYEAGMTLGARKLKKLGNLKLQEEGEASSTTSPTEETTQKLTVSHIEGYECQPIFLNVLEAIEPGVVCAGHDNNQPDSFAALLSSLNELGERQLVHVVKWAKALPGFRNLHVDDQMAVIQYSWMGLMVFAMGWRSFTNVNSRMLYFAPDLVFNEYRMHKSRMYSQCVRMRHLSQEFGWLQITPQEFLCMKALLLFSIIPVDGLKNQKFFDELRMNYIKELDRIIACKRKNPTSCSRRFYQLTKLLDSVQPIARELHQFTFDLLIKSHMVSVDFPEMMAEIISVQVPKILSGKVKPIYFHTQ
Description: cell-based or functional assay.

B1: D30 peptide (…), LXXLL motif peptide (peptide)
peptide: HPTHSSRLWELLMEATPTM
modifications: not checked
Molecule B1 gave a two-hybrid peptide assay (pG4-LUC reporter, PC-3 cells, with against without 10 nM DHT) of 350 fold.
